Experimental findings from US20240150465A1 (Chugai, published 2024) are described below.

One assay addresses T1, del0.
T1 construct: also called human DLL3 ECD with Flag-tag on C-terminus
T1 chain: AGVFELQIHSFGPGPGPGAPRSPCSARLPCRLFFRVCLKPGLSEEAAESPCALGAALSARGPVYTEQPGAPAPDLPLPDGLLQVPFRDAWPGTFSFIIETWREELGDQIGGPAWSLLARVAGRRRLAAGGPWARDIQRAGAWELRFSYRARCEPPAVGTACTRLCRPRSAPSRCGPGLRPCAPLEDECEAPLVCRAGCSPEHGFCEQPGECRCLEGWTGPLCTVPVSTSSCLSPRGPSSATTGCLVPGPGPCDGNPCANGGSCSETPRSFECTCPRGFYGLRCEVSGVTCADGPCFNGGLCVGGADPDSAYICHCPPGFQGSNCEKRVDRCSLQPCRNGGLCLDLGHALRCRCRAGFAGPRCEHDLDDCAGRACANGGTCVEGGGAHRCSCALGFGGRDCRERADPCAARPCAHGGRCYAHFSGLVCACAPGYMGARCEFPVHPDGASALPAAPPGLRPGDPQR
In words: ELISA with the human DLL3 ECD fragment proteins del0 to del6, OD405. The protocol:
(§1) Nunc MaxiSorp 384-well plates (Sigma-Aldrich) were coated with each of the human DLL3 ECD fragment proteins del0 to del6, and blocked with 20% Blocking One (NACALAI TESQUE). Blocking buffer was removed and recombinant anti-DLL3 antibodies were incubated with the immobilized proteins for 1 hour at room temperature and washed with HEPES buffer (0.05% Tween20, HEPES). Monoclonal ANTI-FLAG M2-Peroxidase, Clone M2 (Sigma-Aldrich) was then added and incubated for 1 hour at room temperature and washed. Then, ABTS Microwell Peroxidase Substrate (Kirkegaard & Perry Laboratories) was added and OD405 was analyzed with […]ax 384 (Molecular Devices).

Assay [1] addresses T2, human DLL3 (delta-like protein 3 isoform 1 precursor) expressed on Ba/F3 cells (human, UniProt Q9NYJ7 27-618).
T2 construct: Full-length cDNA stably transfected into mouse Ba/F3 cells; also called human DLL3 expressing Ba/F3
T2 sequence: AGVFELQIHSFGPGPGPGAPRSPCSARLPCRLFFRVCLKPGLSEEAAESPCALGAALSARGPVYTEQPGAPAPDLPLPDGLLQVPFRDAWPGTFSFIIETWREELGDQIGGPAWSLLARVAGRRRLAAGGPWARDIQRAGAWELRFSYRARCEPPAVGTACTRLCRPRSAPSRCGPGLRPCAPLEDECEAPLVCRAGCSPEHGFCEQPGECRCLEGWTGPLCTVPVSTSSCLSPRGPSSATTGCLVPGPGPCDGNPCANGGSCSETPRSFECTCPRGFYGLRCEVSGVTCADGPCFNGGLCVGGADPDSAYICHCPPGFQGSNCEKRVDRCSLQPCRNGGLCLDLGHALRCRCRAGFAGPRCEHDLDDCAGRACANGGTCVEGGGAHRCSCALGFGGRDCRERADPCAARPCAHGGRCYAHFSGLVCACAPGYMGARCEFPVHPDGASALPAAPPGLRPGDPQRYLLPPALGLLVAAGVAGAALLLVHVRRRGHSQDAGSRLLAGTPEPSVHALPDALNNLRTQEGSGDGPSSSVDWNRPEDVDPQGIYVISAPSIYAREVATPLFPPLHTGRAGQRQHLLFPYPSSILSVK
In words: cell ELISA, B-cell culture supernatants on immobilized hDLL3/BaF_H3 cells. The protocol: ELISA screening was conducted to test specificity of antibodies in B-cell culture supernatants. Human DLL3 expressing Ba/F3 (hDLL3/BaF_H3 established in Example 2, 2.5×10⁴ cells) were immobilized onto a Nunc MaxiSorp 384-well plate (Sigma-Aldrich) which was pre-coated with BSA (Sigma-Aldrich) and SUNBRIGHT (registered trademark) OE-080CS as Biocompatible Anchor for cell Membrane (YUKA SANGYO). Immobilized cells were incubated with 20 microliters (micro L) of B-cell culture supernatants for 1 hour. The supernatants were aspirated and the cells were washed with HEPES buffer (0.02 M HEPES, 5 mM KCl, 4 mM NaHCO₃, 138 mM NaCl, 2 mM CaCl₂, 5 mM Glucose, 0.4 mM KH₂PO₄, 0.34 mM Na₂HPO₄° and 0.1% BSA). After washing, goat anti-rabbit IgG polyclonal antibody HRP conjugate (BETHYL, A120-111P) was added. The cells were further incubated on ice for 1 hour and washed. Then, ABTS Microwell Peroxidase Substrate (Kirkegaard & Perry Laboratories) was added and OD405 was analyzed with […]ax 384 (Molecular Devices).
On the technique in general: In an ELISA, binding on a coated surface is turned into a signal by an enzyme label.

For a further assay, the target named is T3, del5.
T3 construct: also called truncated human DLL3 ECD variant with Flag-tag on C-terminus
T3 chain: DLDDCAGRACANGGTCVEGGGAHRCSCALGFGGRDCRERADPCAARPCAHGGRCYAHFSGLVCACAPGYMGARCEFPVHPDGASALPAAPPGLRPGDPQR
In words: ELISA with the human DLL3 ECD fragment proteins del0 to del6, OD405. The protocol:
as §1

For another assay, the target named is T4, del6.
T4 construct: also called truncated human DLL3 ECD variant with Flag-tag on C-terminus
T4 chain: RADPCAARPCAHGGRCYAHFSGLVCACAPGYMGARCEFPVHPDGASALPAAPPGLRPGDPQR
Described as above. How it is done: as §1

Assay [2] has as its target T5, human DLL3 on the surface of cancer cell lines SK-MEL 30, NCI-H1436 and NCI-H2227 (human, UniProt Q9NYJ7 27-618).
T5 construct: whole, on cells; Endogenous protein of human cancer cell lines
T5 sequence (looked up): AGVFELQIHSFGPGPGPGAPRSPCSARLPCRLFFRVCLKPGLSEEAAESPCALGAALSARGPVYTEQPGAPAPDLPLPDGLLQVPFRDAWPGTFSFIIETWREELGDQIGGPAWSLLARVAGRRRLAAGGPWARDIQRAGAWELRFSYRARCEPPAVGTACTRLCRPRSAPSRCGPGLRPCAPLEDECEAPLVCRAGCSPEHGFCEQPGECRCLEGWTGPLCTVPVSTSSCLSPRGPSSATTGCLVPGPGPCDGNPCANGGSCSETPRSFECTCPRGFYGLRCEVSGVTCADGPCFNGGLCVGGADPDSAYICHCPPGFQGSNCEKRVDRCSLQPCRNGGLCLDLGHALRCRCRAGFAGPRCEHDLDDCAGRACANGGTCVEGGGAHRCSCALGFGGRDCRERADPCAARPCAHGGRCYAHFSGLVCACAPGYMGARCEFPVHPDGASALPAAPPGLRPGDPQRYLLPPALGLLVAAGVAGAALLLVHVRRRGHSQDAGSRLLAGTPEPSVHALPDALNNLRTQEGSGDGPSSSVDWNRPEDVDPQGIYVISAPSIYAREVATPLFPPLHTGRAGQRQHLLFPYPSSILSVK
As to the kind of experiment: flow cytometry on SK-MEL-30 cells, 20 micro g/mL antibody, FITC-labeled goat anti-rabbit IgG [A]. How it is done: The cancer cells (5×10⁵ cells) were washed with 0.5% BSA-supplemented CellWASH (BD Bioscience) (hereinafter referred to as FACS/PBS). Bivalent anti-DLL3 antibody (DLA0316-rbIgG) or the control antibody (rabbit IgG) was added at a final concentration of 20 micro g/mL in a 50 micro L solution. After being left to stand at 4 degrees C. for 30 to 60 minutes, the cells were washed with FACS/PBS, and an FITC-labeled goat anti-rabbit IgG antibody diluted 50-fold with FACS/PBS was added to the cells. After being left to stand at 4 degrees C. for further 30 minutes, the cells were washed with FACS/PBS, and analyzed by FACS Verse (Becton Dickinson).

B1: DLA0841 (antibody, human IgG1, V domains shown)
VH: QEQLVESGGGLVQPEGSLTLTCTASGFSFSSSYDMCWVRQAPGKGPEWIACIYTGDGSTDYASWAKGRFTVSKASSTTVTLQMTSLAVADTATYFCARNSGYGYFGLWGPGTLVTVSS
VL: QVLTQTPSPVSAAVGGTVTISCQSTESVYGSDWLSWYQQKPGQPPKVLIYQASNLEIGVPSRFKGSGSGTQFTLTISGAQCDDAATYYCQGYYSGYIYAFGGGTEVVVK
notes: Rabbit B-cell clone, screened as B-cell culture supernatant
Turning to B1, the binding result (in the assay with del0; in assay [1]) was “binds” throughout.

B2: DLA0126 (antibody, human IgG1, V domains shown)
VH: QSVEESGGRLVTPGTPLTLTCTVSGFSLSRYAMSWVRQAPGKGLEWIGIITGGGDPYYASWAKGRFTISKTSTTMDLKITSPTTEDTATYFCARMIGSEYASSSEYYDAFDPWGPGTLVTVSS
VL: ALVMTQTPSSVSAAVGGTVTINCQASQNIYSNLAWYQQKPGQRPKLLIYGASNLESGVPSRFKGSGSGTEYTLTISDLECDDAAIYYCQSAYYTTSVDVLYPFGGGTEVVVK
notes: as for B1
Take B2: the binding result with del0 was “binds”; with del5, “no binding”; in the assay with del6 it was “no binding”; in assay [1], “binds”.

B3: DLA0106 (antibody, human IgG1, V domains shown)
VH: QSVEESGGRLVTPGTPLTLTCTVSGIDLSSYAMSWVRQAPGKGLEWIGIISNSGSGFYANWAKGRFTISKTSSTTVDVKISSPTTEDTATYFCARVFDADSSGYYYYGMDPWGPGTLVTVSS
VL: DVVMTQTPSSVSEPVGGTVTIKCQASEDIESYLAWYQQKPGQPPKLLIYAASTLASGVSSRFRGSGSGTEYTLTISDLECADAATYYCQSTYYDSSGVDWAFGGGTEVVVK
notes: as for B1
As to B3, the binding result in the assay with del0 is “binds”; with del5, “no binding”; with del6, “no binding”; in assay [1], “binds”.

B4: DLA0769 (antibody, human IgG1, V domains shown)
VH: QEQLVESGGGLVQPEGSLTLTCTASGFSFSSSGYMCWVRQAPGKGLEWIACISGGSSGDTDYANWAKGRFSISKTSSTTVTLQMTSLTVADTATYFCARDVYIDSTIFNFNLWGPGTLVTVSS
VL: QVLTQTPSPVSAAVGGTVTISCQASQSVYNNNNLAWYQQKPGQPPKLLIYAASSLASGVPSRFKGSGAGTQFTLTISDLECDDAATYYCQGTYYSSGWYSTFGGGTEVVVK
notes: as for B1
On to B4, for which the binding result (in the assay with del0; in assay [1]) was “binds” each time.

B5: DLA0641 (antibody, human IgG1, V domains shown)
VH: QEQLVESGGGLVQPGASLTLTCKASGFSFNTSYCPCWVRQVPGKGPEWIACIDAGYSGATWYANWAKGRFTISKTSSTTVTLQMTSLTGADTATYFCVRCDAAGSGAFNLWGPGTLVTVSS
VL: AYDMTQTPASVEVPVGGTVTIKCQASQSIYSYLSWYQQKPGQPPKLLIYEASKLTSGVPSRFSGSGSGTEFTLTISGVQCDDAATYYCQQGSGYMDVDNVFGGGTEVVVK
notes: as for B1
Consider B5, for which the binding result (with del0; in assay [1]) was “binds” throughout.

B6: DLA0580 (antibody, human IgG1, V domains shown)
VH: QEQLVESGGGLVQPGASLTLTCKASGFDFTSNAMCWVRQAPGKGPEWIACIYNDDGSAYSASWAKGRFTVSKTSSTAVTLQVTGLTAADTATYFCARSPYYTYGGAPSAYASGYFNLWGPGTLVTVSS
VL: DIVMTQTPASVEAAVGGTVTIKCQASENIYNSLAWYQQKPGQPPKLLMHDASVLTSGVPSRFSGSGYGTEFTLTISDLECADAATYYCQSDYYSTGGSYGFAFGGGTEVVVK
notes: as for B1
Turning to B6, the binding result in the assay with del0 was “binds”; in the assay with del5, “no binding”; with del6, “no binding”; in assay [1] it was “binds”.

B7: DLA0316 (antibody, human IgG1, V domains shown)
VH: QEQLVESGGGLVQPGGSLKLSCKVSGFDFSNYGVSWVRQAPGKGLEWIGYIDPAFGRTYYASWVNGRFTISSHNAQNTLYLQLNSLTAADTATYFCVRVALVVAGVAYYGMDVWGPGTLVTVSS
VL: DVVMTQTPASVEAAVGGTVTINCQASQNIYSYLSWYQQKPGQPPKLLIYRTSTLASGVPSRFKGSGSGTQFTLTISDLECADAATYYCQSYYYSSGSSYGAFAFGGGTEVVVK
notes: as for B1
For B7, the binding result (in the assay with del0; in assay [1]) was “binds” each time.

B8: DLA0316-rbIgG (antibody, V domains shown)
VH: QEQLVESGGGLVQPGGSLKLSCKVSGFDFSNYGVSWVRQAPGKGLEWIGYIDPAFGRTYYASWVNGRFTISSHNAQNTLYLQLNSLTAADTATYFCVRVALVVAGVAYYGMDVWGPGTLVTVSS
VL: DVVMTQTPASVEAAVGGTVTINCQASQNIYSYLSWYQQKPGQPPKLLIYRTSTLASGVPSRFKGSGSGTQFTLTISDLECADAATYYCQSYYYSSGSSYGAFAFGGGTEVVVK
notes: also called bivalent DLA0316; Bivalent anti-DLL3 antibody
For B8, the binding result in assay [2] was “binds”.
